Measured values from patent US20040033229A1 (published 2004).

Molecular target: prostate specific membrane antigen (PSMA), full-length, on the cell surface (human, UniProt Q04609 1-750)
Test: cell-based or functional assay

Chain of prostate specific membrane antigen (PSMA), full-length, on the cell surface (Q04609 whole entry): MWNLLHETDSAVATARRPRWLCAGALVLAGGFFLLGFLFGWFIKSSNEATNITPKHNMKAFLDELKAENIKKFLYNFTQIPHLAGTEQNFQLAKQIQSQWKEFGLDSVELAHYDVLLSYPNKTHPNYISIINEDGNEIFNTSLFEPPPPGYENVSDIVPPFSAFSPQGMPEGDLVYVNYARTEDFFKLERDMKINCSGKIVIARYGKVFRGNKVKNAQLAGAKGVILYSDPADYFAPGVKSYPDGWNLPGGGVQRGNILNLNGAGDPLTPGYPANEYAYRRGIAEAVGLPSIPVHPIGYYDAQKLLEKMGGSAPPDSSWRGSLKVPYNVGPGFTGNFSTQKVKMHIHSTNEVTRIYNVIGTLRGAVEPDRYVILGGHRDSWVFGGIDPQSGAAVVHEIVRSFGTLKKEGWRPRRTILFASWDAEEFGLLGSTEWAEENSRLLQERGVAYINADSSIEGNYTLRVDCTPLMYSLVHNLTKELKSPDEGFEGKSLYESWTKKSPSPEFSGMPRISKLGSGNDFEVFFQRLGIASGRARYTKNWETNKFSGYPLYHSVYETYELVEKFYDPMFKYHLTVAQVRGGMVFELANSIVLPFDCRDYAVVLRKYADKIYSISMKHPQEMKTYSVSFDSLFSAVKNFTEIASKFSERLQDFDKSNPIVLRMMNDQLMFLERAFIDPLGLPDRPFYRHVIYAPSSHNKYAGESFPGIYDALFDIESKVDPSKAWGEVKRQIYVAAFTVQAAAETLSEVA

B1: 225Ac labeled mAb 026 (antibody, V domains shown)
VH: QVQLVESGGGVVQPGRSLRLSCAASGFTFSNYVMHWVRQAPGKGLEWVAIIWYDGSNKYYADSVKGRFTISRDNSKNTLYLQMNSLRAEDTAVYYCAGGYNWNYEYHYYGMDVWGQGTTVTVSS
VL: DIQMTQSPSSLSASVGDRVTITCRASQGITNYLAWFQQKPGKAPKSLIYAASSLQSGVPSKFSGSGSGTDFSLTISSLQPEDFATYYCQQYNSYPITFGQGTRLEIK
modifications: 225Ac-DOTA conjugate, sites not stated; 225Ac-DOTA conjugate, sites not stated ; 225Ac chelated by DOTA and conjugated to the antibody; sites not stated
IC50 of cell survival (3H thymidine incorporation), C4-2 cells: 0.12 nCi/mL | IC50 of cell survival, C4-2 and LNCaP cells: < 1 nCi/mL | selectivity of killing, C4-2 against PC3: > 50 fold
